T1: full length human LEPR (amino acids 1-1165 of P48357, Isoform B), on cells (human, UniProt P48357 22-1165)
T1 construct: also called hLEPR-FL; HEK293/Stat3-luc/hLEPR-FL
T1 sequence: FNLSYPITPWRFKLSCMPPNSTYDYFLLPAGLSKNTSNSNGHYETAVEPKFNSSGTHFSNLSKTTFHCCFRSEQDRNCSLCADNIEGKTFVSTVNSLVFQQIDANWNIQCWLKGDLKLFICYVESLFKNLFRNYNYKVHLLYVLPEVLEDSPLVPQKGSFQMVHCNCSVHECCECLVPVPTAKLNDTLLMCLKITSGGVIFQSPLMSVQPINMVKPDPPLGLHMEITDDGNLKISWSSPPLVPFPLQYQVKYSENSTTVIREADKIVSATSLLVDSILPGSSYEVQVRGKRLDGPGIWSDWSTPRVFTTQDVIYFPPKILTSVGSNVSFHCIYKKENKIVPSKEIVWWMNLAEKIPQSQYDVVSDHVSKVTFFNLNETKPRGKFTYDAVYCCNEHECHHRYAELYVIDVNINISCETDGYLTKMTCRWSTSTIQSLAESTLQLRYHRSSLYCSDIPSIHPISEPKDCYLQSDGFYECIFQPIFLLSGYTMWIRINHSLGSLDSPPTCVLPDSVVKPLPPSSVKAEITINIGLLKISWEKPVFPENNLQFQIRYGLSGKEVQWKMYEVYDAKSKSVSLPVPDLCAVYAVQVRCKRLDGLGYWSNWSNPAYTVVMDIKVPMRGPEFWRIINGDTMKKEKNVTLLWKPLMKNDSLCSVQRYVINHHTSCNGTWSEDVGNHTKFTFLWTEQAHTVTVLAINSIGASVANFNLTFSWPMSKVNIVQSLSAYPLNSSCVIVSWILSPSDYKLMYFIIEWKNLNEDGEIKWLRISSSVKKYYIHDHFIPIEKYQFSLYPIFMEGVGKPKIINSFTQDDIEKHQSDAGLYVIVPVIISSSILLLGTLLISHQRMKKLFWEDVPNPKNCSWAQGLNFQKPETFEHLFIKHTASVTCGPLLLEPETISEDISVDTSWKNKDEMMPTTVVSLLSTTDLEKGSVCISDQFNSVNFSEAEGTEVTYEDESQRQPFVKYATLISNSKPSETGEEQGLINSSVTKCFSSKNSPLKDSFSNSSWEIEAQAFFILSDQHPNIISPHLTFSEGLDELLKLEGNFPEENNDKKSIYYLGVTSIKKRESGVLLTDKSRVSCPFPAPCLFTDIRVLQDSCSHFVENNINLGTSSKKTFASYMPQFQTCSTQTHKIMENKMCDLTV

T2: Mycx2-hLepR(ecto)-GPI anchored, on HEK293/hLEPR-GPI cells (human, UniProt P48357 22-839, GPI anchor at the C-terminus)
T2 construct: also called HEK293/Mycx2-hLepR(ecto)-GPI; not shown: N-terminal myc-myc tag
T2 sequence: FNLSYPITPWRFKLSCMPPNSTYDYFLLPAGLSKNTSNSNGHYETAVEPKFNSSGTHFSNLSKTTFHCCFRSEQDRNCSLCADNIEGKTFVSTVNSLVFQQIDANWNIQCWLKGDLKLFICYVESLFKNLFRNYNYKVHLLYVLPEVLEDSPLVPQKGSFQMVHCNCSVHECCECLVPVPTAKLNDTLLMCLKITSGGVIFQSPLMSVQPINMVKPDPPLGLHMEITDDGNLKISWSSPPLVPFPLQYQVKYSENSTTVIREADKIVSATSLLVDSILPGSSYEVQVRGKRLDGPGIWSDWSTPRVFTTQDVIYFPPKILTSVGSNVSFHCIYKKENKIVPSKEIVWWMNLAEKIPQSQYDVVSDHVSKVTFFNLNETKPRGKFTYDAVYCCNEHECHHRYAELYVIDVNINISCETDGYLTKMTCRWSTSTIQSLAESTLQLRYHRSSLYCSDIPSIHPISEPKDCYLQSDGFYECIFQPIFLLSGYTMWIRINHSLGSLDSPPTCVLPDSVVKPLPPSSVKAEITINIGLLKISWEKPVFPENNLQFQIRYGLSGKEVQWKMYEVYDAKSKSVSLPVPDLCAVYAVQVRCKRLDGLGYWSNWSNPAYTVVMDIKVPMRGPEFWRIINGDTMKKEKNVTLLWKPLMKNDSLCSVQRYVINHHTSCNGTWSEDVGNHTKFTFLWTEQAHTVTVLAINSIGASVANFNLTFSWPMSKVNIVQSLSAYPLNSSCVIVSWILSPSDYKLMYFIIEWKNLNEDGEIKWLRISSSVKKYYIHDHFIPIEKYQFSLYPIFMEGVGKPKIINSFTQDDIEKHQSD

T3: human LEPR CRH1 (D1,D2,D3)-MMH (human, UniProt P48357 22-427)
T3 construct: domain: CRH1-Ig (D1,D2,D3); Limits on human LEPR cannot be told from the printed numbers; also called CRH1-Ig (D1, D2, D3); not shown: C-terminal myc-myc hexahistidine tag (amino acids 279-306 of the construct)
T3 sequence (looked up): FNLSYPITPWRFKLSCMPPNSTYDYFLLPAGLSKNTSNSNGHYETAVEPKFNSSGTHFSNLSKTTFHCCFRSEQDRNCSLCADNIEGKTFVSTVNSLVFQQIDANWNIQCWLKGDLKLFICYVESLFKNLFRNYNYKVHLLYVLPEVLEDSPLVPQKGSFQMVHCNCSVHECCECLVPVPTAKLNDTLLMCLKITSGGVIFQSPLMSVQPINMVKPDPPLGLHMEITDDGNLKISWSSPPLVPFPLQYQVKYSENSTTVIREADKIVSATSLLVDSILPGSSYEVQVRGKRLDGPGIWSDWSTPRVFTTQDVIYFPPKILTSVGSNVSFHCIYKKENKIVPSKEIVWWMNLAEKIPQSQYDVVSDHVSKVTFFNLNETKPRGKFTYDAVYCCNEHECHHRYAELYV

B1: H4H17319P2 (antibody, human IgG4, V domains shown)
VH: QVQLVESGGSVVQPGRSLRLSCAASGFTFSTYAMYWVRQTPGKGLEWVAVLYSDGSNKYYIDSVKGRFTISRDTSTNTLYLQMSSLRADDSALYYCARLNWDYWYFDLWGRGTLVTVSS
VL: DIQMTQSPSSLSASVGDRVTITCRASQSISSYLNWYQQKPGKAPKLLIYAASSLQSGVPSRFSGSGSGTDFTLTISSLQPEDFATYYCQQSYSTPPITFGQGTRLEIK
notes: human IgG4 Fc; Classed as agonist
B2: H4H16650P2 (antibody, human IgG4, V domains shown)
VH: QVQLVESGGGVVQPGKSLRLSCVASGFTFSSDAMYWVRQAPGKGLEWVAVIYYDGNYQYYEDSVKGRFTISRDNSQNTLDLQMNSLRVDDTAVYFCARLNWDYWYLDLWGRGTLVTVSS
VL: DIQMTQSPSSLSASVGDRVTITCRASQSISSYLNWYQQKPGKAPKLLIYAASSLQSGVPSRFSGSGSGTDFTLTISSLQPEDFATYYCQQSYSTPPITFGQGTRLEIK
notes: H4H prefix means human IgG4 Fc; Classed as agonist
B3: H4H16679P2 (antibody, human IgG4, V domains shown)
VH: QVQLVESGGGVVQPGRSLRLSCTASGFTFSSYAMYWVRQAPGKGLEWVSVIYYDGSYKYYADSVKGRFTISRDNSKNTLYLQMDSLRAEDTAVYYCASYNWNYWYFDFWGRGTLVTVSS
VL: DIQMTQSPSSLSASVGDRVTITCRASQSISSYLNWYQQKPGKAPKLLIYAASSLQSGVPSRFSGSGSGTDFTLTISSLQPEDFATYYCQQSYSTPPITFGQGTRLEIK
notes: as for B1
B4: H4H17321P2 (antibody, human IgG4, V domains shown)
VH: QVQLVESGGGVVQPGRSLRLSCEASGFSSSDNAMYWVRQAPGKGLEWVSVIYHDGSYKYYEDSVKGRFTIARDNSKNTLYLQMNSLRAEDTAVYYCARYNWNHWYFDVWGRGTLVTVSS
VL: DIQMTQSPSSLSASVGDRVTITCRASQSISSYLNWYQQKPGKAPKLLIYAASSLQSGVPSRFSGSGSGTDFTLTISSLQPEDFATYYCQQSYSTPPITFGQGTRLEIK
notes: as for B1
B5: H4H18438P2 (antibody, human IgG4, V domains shown)
VH: QVQLVESGGGVVQPGRSLRLSCAASGFSFNTYGMHWVRQAPGKGLEWVTIIWYDGSIKYYADSVKGRFTISRDNSKNTLYLQMNSLRAEDTAVYYCARGGYSGYLYFDYWGQGTLVTVSS
VL: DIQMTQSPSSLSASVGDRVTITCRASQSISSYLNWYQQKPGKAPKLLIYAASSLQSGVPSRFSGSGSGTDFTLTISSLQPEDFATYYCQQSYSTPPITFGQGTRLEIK
notes: human IgG4 Fc; Classed as potentiator
B6: H4H18449P2 (antibody, human IgG4, V domains shown)
VH: EVQLVESGGGLVQPGGSLRLSCVASGFTFNKYDMHWVRQTTGKGLEWVSGIDTDGDTYYPGSVKGRFTISRENAENSLYLQMNGLRVGDTAVYYCARWPWSGFYGAFDIWGQGTMVTVSS
VL: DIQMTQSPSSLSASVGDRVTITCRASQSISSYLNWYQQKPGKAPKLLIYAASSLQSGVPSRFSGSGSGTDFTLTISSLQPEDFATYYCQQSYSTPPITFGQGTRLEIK
notes: human IgG4 Fc; summary lists 74/66
B7: H4H18445P2 (antibody, human IgG4, V domains shown)
VH: QVQLQESGPGLVKPSQTLSLTCTVSGGSISSGGDYWSWIRQLPGKGLEWIGYIYYSGSAYYNPSLKSRGTISIDTSKNQFSLKLTSVTAADTAVYFCVKLRFLEWFLGGWFGPWGQGTLVTVSS
VL: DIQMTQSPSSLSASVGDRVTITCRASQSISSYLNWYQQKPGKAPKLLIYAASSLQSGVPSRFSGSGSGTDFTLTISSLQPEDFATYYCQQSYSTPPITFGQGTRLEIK
notes: human IgG4 Fc
B8: H4H18417P2 (antibody, human IgG4, V domains shown)
VH: QVQLVESGGGVVQPGRSLRLSCAASGFTFSTYGMHWVRQAPGKGLEWVSVISYDESNKYYADSVKGRFTISRDNSKNALYLQMNSLRNEDTAVYYCARDRPFGLVTGWFDPWGQGTLVTVSS
VL: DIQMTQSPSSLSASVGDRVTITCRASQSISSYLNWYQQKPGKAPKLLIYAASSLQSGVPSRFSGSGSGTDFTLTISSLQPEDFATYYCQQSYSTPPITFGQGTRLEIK
notes: as for B5
B9: H4H18446P2 (antibody, human IgG4, V domains shown)
VH: EVQLVESGGGLVQPGGSLRLSCAASGFTFSNYGMTWVRQAPGKGLEWVSAITGGGGSTYYSNSVKGRFTISRDNSKNTVYLRMNSVRAEDTAVYYCAKYKWNFVDDWGQGTTVTVSS
VL: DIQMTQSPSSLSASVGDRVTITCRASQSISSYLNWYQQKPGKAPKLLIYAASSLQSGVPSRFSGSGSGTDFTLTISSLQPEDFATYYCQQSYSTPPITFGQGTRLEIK
notes: human IgG4 Fc

Target: T1, full length human LEPR (amino acids …)
Assay: FACS, 70 nM Ab, HEK293/Stat3-luc/hLEPR-FL

Binding Ratio [fold]	Binder
47	B1
42	B2
51	B3
46	B4

Target: T2, Mycx2-hLepR(ecto)-GPI anchored, on …
Assay: FACS, 70 nM Ab, HEK293/hLEPR-GPI

Binding Ratio [fold]	Binder
1130	B1
707	B2
1080	B3
1130	B4

Target: T4, human LEPR extracellular domain expressed with a C-terminal myc-myc-hexahistidine tag (hLEPR.mmh) (human, UniProt P48357 22-839)
T4 construct: also called human LEPR-MMH; monomeric human LEPR
Assay: SPR, mAb over preformed hLEPR-MMH:human Leptin complex
Experimental: The entire study was performed in 10 mM HEPES pH 7.4, 150 mM NaCl, 3 mM EDTA, and 0.05% v/v Surfactant Tween-20 (HBS-ET running buffer) at 25° C.

200 nM mAb Bound (RU)	Binder
92	B1
81	B2
90	B3

Target: T2, Mycx2-hLepR(ecto)-GPI anchored, on …
Assay: FACS, 10 nM Ab, HEK293/hLEPR-GPI, no added Leptin
Experimental: (§1) For the FACS analysis, HEK293 parental cells and HEK293/hLEPR-GPI cells were dissociated and plated onto 96-well v-bottom plates at 5×10⁵ cells/well in PBS containing 2% FBS (FACS buffer). […] Cells were subsequently fixed using BD CytoFix™ (Becton Dickinson, #554655), filtered, and analyzed on a HyperCyt Flow Cytometer (Beckman Coulter). Unstained and secondary antibody alone controls were also tested for all cell lines. The results were analyzed using ForeCyt (IntelliCyt) and FlowJo version 10 software to determine the geometric means of fluorescence for viable cells. The geometric mean of fluorescence for each sample was then normalized to the geometric mean of unstained cells to obtain relative binding per condition referred to as “binding ratios”, and these binding ratios were recorded for each antibody tested.

Binding Ratio [fold]	Binder
1490	B5
3370	B6
2020	B7
2420	B2
2060	B3
1840	B8

Target: T2, Mycx2-hLepR(ecto)-GPI anchored, on …
Assay: FACS, 10 nM Ab, HEK293/hLEPR-GPI, 1 uM Leptin
Experimental: as §1

Binding Ratio [fold]	Binder
2410	B5
3110	B6
2490	B7
3120	B2
2220	B3
2600	B8

Target: T3, human LEPR CRH1 (D1,D2,D3)-MMH
Assay: Luminex, myc-captured LEPR protein
Experimental: Aliquots of microspheres with immobilized anti-myc monoclonal antibodies, prepared as described above, were added individually to 1 mL of the each of these protein supernatants. The microspheres were gently mixed, incubated for two hours at 25° C., washed twice with 1 mL of DBPS, centrifuged to remove the supernatant and finally resuspended in 1 mL of DPBS buffer.
From this mixed pool, 75 μL of microspheres were plated per well on a 96 well filter plate (Millipore, Cat. No: MSBVN1250) and mixed with 25 μL of individual anti-human LEPR monoclonal antibodies (0.5 or 5 μg/mL), incubated for two hours at 25° C. and then washed twice with 200 μL of DPBS with 0.05% Tween 20 (washing buffer). […] The Median Fluorescence intensity (MFI) of the microspheres was measured in a Luminex Analyzer.

Luminex MFI [MFI]	Binder
205	B9
